From US20080182978A1, “ANTI-NGF ANTIBODIES AND METHODS USING SAME” (RINAT NEUROSCIENCE CORP, priority 2002, published 2008)
Where a chain is given by its changes, count along the chain named. Numbers in names are those of the source.

B1: 3C: H19-L129 with CDR-L3 S91E, K92R and CDR-H3 Y101W, G103A (antibody, V domains shown)
VH: QVQLQESGPGLVKPSETLSLTCTVSGFSLIGYDLNWIRQPPGKGLEWIGIIWGDGTTDYNSAVKSRVTISKDTSKNQFSLKLSSVTAADTAVYYCARGGYWYATSYYFDYWGQGTLVTVS
VL: DIQMTQSPSSLSASVGDRVTITCRASQSISNNLNWYQQKPGKAPKLLIYYTSRFHSGVPSRFSGSGSGTDFTFTISSLQPEDIATYYCQQERTLPYTFGQGTKLEIKRT
B2: H19-L129: combined clone with matured CDRs H1, H2, L1, L2 and grafted H3 and L3 (antibody, V domains shown)
VH: B1 VH with W101Y, A103G
VL: B1 VL with E91S, R92K

What was measured:
human NGF [1] = target: T1, human NGF (Homo sapiens, UniProt P01138); test: BIAcore affinity determination assay (kon, koff, KD of purified Fabs); format: binding; details: Fab on immobilized human NGF
T1 sequence (P01138 122-241): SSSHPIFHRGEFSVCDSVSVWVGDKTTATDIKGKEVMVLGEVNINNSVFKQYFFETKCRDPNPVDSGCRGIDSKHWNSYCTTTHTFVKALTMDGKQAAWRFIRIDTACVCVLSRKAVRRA
Description: (§1) Affinities of anti-NGF Fabs and monoclonal antibodies were determined using the BIAcore300™ surface plasmon resonance (SPR) system (BIAcore, INC, Piscaway N.J.). CM5 chips were activated with N-ethyl-N′-(3-dimethylaminopropyl)-carbodimide hydrochloride (EDC) and N-hydroxysuccinimide (NHS) according to the supplier's instructions. Human NGF was diluted into 10 mM sodium acetate pH 4.0 and injected over the activated chip at a concentration of 0.005 mg/mL. Using variable flow time across the individual chip channels, two ranges of antigen density were achieved: 100-200 response units (RU) for detailed kinetic studies and 500-600 RU for screening assays. The chip was blocked with ethanolamine. […] HBS-EP buffer (0.01M HEPES, pH 7.4, 0.15 NaCl, 3 mM EDTA, 0.005% Surfactant […]) was used as running buffer for all the BIAcore assays.
Serial dilutions (0.1-10× estimated KD) of purified Fab samples were injected for 1 min at 100 μL/min and dissociation times of up to 2 h were allowed. The concentrations of the Fab proteins were determined by ELISA and/or SDS-PAGE electrophoresis using as a standard a Fab of known concentration (as determined by amino acid analysis). Kinetic association rates (kon) and dissociation rates (koff) were obtained simultaneously by fitting the data to a 1:1 Langmuir binding model (Karlsson, R. Roos, H. Fagerstam, L. Petersson, B. (1994). Methods Enzymology 6. 99-110) using the BIAevaluation program. Equilibrium dissociation constant (KD) values were calculated as koff/kon.
The binding affinities to human NGF of Fabs E3 and 3C were measured using BIAcore analysis according to the manufacturer's instructions and as described above, except that 100 RU NGF was used on chip to prevent a rebinding effect. Briefly, several concentrations of antibodies (Fabs) were injected for 2 minutes onto a CM5 chip with 100 RU of immobilized human NGF on it, and permitted to dissociate for 1800 seconds. Mouse antibody 911 (Fab) was analyzed as a control. Data was analyzed using BIAevaluation software following the manufacturer's instructions. E3 bound human NGF with a KD of approximately 0.07 nM (and with a kon of about 6.0e5 M-1s-1, and a koff of about 4.2e-5s-1).

human NGF [2] = target: T1, human NGF; test: BIAcore screening assay of Fab library clones (koff); format: binding
Description: Small scale expression in 96 wells plates was optimized for screening Fab libraries. Starting from E. coli transformed with a Fab library, colonies were picked to inoculate both a master plate (agar LB+Ampicillin (50 μg/ml)+2% Glucose) and a working plate (2 ml/well, 96 well/plate containing 1.5 mL of LB+Ampicillin (50 μg/ml)+2% Glucose). Both plates were grown at 30° C. for 8-12 hours. The master plate was stored at 4° C. and the cells from the working plate were pelleted at 5000 rpm and resuspended with 1 mL of LB+Ampicillin (50 μg/ml)+1 mM IPTG to induce expression of Fabs. Cells were harvested by centrifugation after 5 h expression time at 30° C., then resuspended in 500 μL of buffer HBS-EP ([…] buffer pH 7.4, 150 mM NaCl, 0.005% P20, 3 mM EDTA). Lysis of HBS-EP resuspended cells was attained by one cycle of freezing (−80° C.) then thawing at 37° C. Cell lysates were centrifuged at 5000 rpm for 30 min to separate cell debris from supernatants containing Fabs. The supernatants were then injected into the BIAcore plasmon resonance apparatus to obtain affinity information for each Fab. Clones expressing Fabs were rescued from the master plate to sequence the DNA and for large scale Fab production and detailed characterization as described below.
as §1
A screening BIAcore assay was optimized to determine the affinity of Fab clones from libraries. Supernatants of small culture lysates were injected at 50 μl/min for 2 min. Dissociation times of 10 to 15 minutes were used for determination of a single exponential dissociation rate (koff) using BIAevaluation software. […] Clones showing improved (slower) koff values were expressed at large scale and full kinetic parameters, kon and koff, were determined on purified protein. The assay was capable of detecting differences in affinity that were approximately 2-fold or larger.
For affinity screening experiments, each library was further paired with the corresponding CDR-grafted light or heavy chain (for example, the H1/H2 library was paired with CDR-grafted light chain), the antibody was expressed, and affinity to human NGF of the individual clones was screened using the BIACORE surface plasmon resonance (SPR) system (BIAcore, Inc. Piscataway, N.J.) according to the manufacturer's instructions and as described above. koff, kon and KD were determined. Antibody clones were ranked based on koff rates, since generally most variation in affinity is seen in koff rates, and further because koff rates are independent of antibody concentration.
20-80 clones from each small library were screened using BIAcore analysis as described herein. Samples were simultaneously analyzed by BIAcore for binding affinity to NGF in one channel of the BIAcore chip and for presence of Fab by binding to a penta-histag antibody in another channel of the sensor chip, to detect the his tag at the C terminus of the heavy chain. Clones that expressed protein were classified as having the same affinity, worse affinity, better affinity or no binding, using koff to classify: The results of this analysis are shown in Table 5.

human NGF [3] = target: T1, human NGF; test: Mouse E13.5 trigeminal neuron survival assay, human NGF; format: cell-based; details: 1.5 or 15 pM human NGF
Description: (§2) The ability of Fab E3 or full antibody E3 to block NGF activity was evaluated by measurement of the capacity of the antibody to inhibit NGF-dependent survival of mouse E13.5 trigeminal neurons in vitro. The trigeminal ganglion is comprised of cutaneous sensory neurons that innervate the facial region. The survival of mouse E13.5 trigeminal neurons is a sensitive assay to evaluate the NGF-blocking activity of anti-NGF antagonist antibodies because NGF is required to support survival of these neurons. For example, at saturating concentrations of NGF, the survival is close to 100% by 48 hours in culture. By contrast, less than 5% of the neurons survive by 48 hours in absence of NGF.
(§3) The survival assay was conducted as follows: time-mated pregnant Swiss Webster female mice were euthanized by CO2 inhalation. The uterine horns were removed and the embryos at embryonic stage E13.5 were extracted and decapitated. The trigeminal ganglia were dissected using electrolytically sharpened tungsten needles. The ganglia were then trypsinized, mechanically dissociated and plated at a density of 200-300 cells per well in defined, serum-free medium in 96-well plates coated with poly-L-ornithine and laminin.
After 48 hours in culture, the cells were subjected to an automated immunocytochemistry protocol performed on a Biomek FX liquid handling workstation (Beckman Coulter) as follows: fixation using 4% formaldehyde, 5% sucrose, and PBS; permeabilization using 0.3% Triton X-100 in PBS); blocking of unspecific binding sites using 5% normal goat serum, 0.11% BSA in PBS; and sequential incubation with a primary and secondary antibodies to detect neurons. The primary antibody was rabbit polyclonal antibody against the protein gene product […] (PGP9.5, Chemicon), an established neuronal phenotypic marker. The secondary antibody was Alexa Fluor 488 goat anti-rabbit (Molecular Probes), together with the nuclear dye Hoechst 33342 (Molecular Probes) to label the nuclei of all the cells present in the culture. […]

rat NGF = rat NGF (Rattus norvegicus, UniProt P25427); test: Mouse E13.5 trigeminal neuron survival assay, rat NGF; format: cell-based; details: 1.5 or 15 pM rat NGF
Chain of rat NGF (P25427 122-241): as the sequence (P01138 122-241) above, with S3T, I6V, R9M, M37T, D60A, D65E, M92T, G94D, V117A, A120G counted along it
Description: as §2
as §3, with “laminin. […]” for “laminin.”

[4] = Table 8: CDR L3 H3 combination mutations, H19-L129 template (H1H2L1L2 matured)

Molecule	koff (human NGF [1])	koff (human NGF [2]; [4])	blocking of human NGF-dependent trigeminal neuron survival (human NGF [3])	blocking of rat NGF-dependent trigeminal neuron survival (rat NGF)	koff (human NGF [2]; Table 4: combination clone, mutations in CDRs H1, H2, L1, L2)
B1	about 1.4E-5 s^−1	1.4e-05 s⁻¹	strongly blocked	strongly blocked	–
B2	–	1.1 e-4 s-1	strongly blocked	strongly blocked	0.00011 s⁻¹
